The nature of this data set: label from the status in PepcDB records.
For “IIAWLGPQLRELTPVDTNKDPKTRLQEFLQSRGCDLPRYEVVDIQGEPHCRTFFVDCEVALLSDKTHGHGGSRRIAEQVAAAAALVALGVENGHD”, the protein production result is “failed”. As for “ILTENTPYFEQLSVPQRSVGRIIGRGGETIRSICKASGAKITCDKESEGTLLLSRLIKISGTQKEVAAAKHLILEKVSEDEELRKRIAHSA”, the protein production result is “not failed”. The same measure for “INIEIAYAFPERYYLKSFQVDEGITVQTAITQSGILSQFPEIDLSTNKIGIFSRPIKLTDVLKEGDRIEIYRPLLADPKEIRRK”: “not failed”; for “INSAIELMEHNSSLSISEIAQFTNTSTAYFSRIFKKTIGETPVCFYTKIKLKKVQKLLITTNLTLAEISEQTGFTDPFYLSKVFTTHLGCSPRTYRKN”: “failed”; for “IPLGIYEKALPAGECWLERLKLAKALGFDFVEMSLDETDARLARLDWSPEQRLALVKAVAETGVRVPSMCLSAHRRFPLGSEDDAVRHQGLEIMRKAIQLAQDVGIRVIQLAGYDVYYQQANDETRRRFRDGLKQSVEMASRAQVTLAMEIMDYPLMNSISKALGYAHYLNNPWFQLYPDIGNLSAWDNDVQMELKAGSGHIVAVHVKDTKPGVFKNVPFGEGVVDFERCFETLKQTGYCGPYLIEMWSETSADPLAEVAKARDWVKARMARAGLM”: “not failed”.

With “IPTCKITLKETFLTSPEELYRVFTTQELVQAFTHAPATLEADRGGKFHMVDGNVSGEFTDLVPEKHIVMKWRFKSWPEGHFATITLTFIDKNGETELCMEGRGIPAPEEERTRQGWQRYYFEGIKQTFGYGA”, the protein production entry is reported as “not failed”.

Turning to “IQAGILANSFHVKLSDETQMVVKYQNQPFVNGTFGNWQILEAETINGINQILWRNPDIEEVGIWNTDANWNWISSETWSANSLKTLNAEVTFQIDINNDQLIG”, the protein production result is listed as “failed”.

Turning to “IQLIVNGQSQLVPSPDSGTDSGTTNDARLNIRQLLEHMGLQGKRIAVERNGEIVPRSQFDQPMLASGDKLEIVVAVGGG”, the protein production entry is reported as “failed”.

For “IQPTYTSTTRIYVVNQATDNNNLSAQDLQAGTYLANDYKEIITSNDVLSEVIKDEKLNLSEAELSKMVSVNIPTDTRLISISVNAKTGQDAQTLANKVREVASKKIKKVTKVEDVTTLEEAKLPESPSSPNIK”, the protein production entry is “failed”. For “IQRSIERALDFRKEVQRLREESDGWFFDIWQPEAVDKAECWPVAPGEDWHGFKDADADHMYLDPVKVTILTPGMDEQGNMDEEGIPAALVAKFLDERGVVVEKTGPYNLLFLFSIGIDKTRAMGLLRGLTEFKRAYDLNLRVKNMLPDLYAEDPDFYRNMRIQDLAQGIH”, the protein production entry is given as “failed”.

Take “IRHEITSRTSVSVLVNRCNWFCTSPKCSGLTVMGCLCVAMSVAKKDKPTMSVTALINWARPLPPGQQQQPMTPTSPGNMLQPMATPSNLPTVDCSLDIQWLNLEGGFMSPMSPPEMKPDTAMLDGLRDDSTPPPAFKNYPPNHPLSGSKHLCSICGDRASGKHYGVYSCEGCKGFFKRTVRKDLTYACREERNCIIDKRQRNRCQYCRYQKCLACGMKREAVQEERQRAARGTEDAHPSSSVQVQELSIERLLEMESLVADPSEEFQFLRVGPDSNVPPKFRAPVSSLCQIGNKQIAALVVWARDIPHFSQLEMEDQILLIKGSWNELLLFAIAWRSMEFLTEERDGVDGTGNRTTSPPQLMCLMPGMTLHRNSALQAGVGQIFDRVLSELSLKMRTLRVDQAEYVALKAIILLNPDVKGLKNRQEVEVLREKMFLCLDEYCRRSRSSEEGRFAALLLRLPALRSISLKSFEHLFFFHLVADTSIAGYIRDALRNHAPPIDTNMM”: the protein production entry was “not failed”.

Consider “IRQAARGDAERGLGRRRLMQALDGMEAGCALLDGRGSLQEASHGLCRLLGRGRADLLGMNVADVCAPEDLSRLNAALACGGRMQRLRLRLMDGDGRAVDCELVLTPQEESMDGAAWLLQAED”, for which the protein production entry is listed as “failed”. Turning to “ITSFIRNRDKLTQAEYLLRLAGEKASLGGWRIELDPPVITWTSETAVIHGMPPDYSPPDVGTAVQFYAPEFREFIMEVFERCVQQGEPFDVICQLQVPDGRRPWIRAIGEAERDAQGKVIVVQGAFQDIS”, the protein production entry was “failed”.

As to “KDAAWLNGWTSYNKVAREIVLAEMANTTILEEGKIVAELRRLLPDKAGLFIGNSMPIRDVDTYFSQIDKKIKMLANRGANGIDGVVSSALGASVVFQPMFLLIGDLSFYHDMNGLLMAKKYKMNLTIVIVNNDGGGIFSFLPQANEPKYFESLFGTSTELDFRFAAAFYDADYHEAKSVDELEEAIDKASYHKGLDIIEVKTNRHENKANHQALWVKIADALKALD”, the protein production entry is “failed”.

The record behind these values is a protein production outcome set (Wang et al. 2014).
